The text below walks through data of US20250154198A1, “PEPTIDE INHIBITORS OF INTERLEUKIN-23 RECEPTOR” (Zealand Pharma A/S, priority 2021, published 2025).

*1 amine or outer side, *2 acyl side, *3 side chain or, on linkers, in order; H or OH if unused. Bridges are numbered along the chain shown (N, C = ends). [ ]: non-standard residue; d: D form. 1,3‑dibromopropan‑2‑one = linker (CAS 816-39-7) joining two Cys as 1,3-dithio-propan-2-one bridge -SCH2C(=O)CH2S-; Trp(1-Me) = Cn1cc(C[C@H](N)C(=O)O)c2ccccc21; Lys(N3) = [N-]=[N+]=NCCCC[C@H](N)C(=O)O; 2Nal = N[C@@H](Cc1ccc2ccccc2c1)C(=O)O; AEF = NCCOc1ccc(C[C@H](N)C(=O)O)cc1; αMeL = CC(C)C[C@](C)(N)C(=O)O; CH2COCH2 = O=C(C[*:1])C[*:2]; αMeK = C[C@](N)(CCCCN)C(=O)O; 3Amb = NCc1cccc(C(=O)O)c1; Pra = C#CC[C@H](N)C(=O)O; Abu = CC[C@H](N)C(=O)O

For test [1], the target named is T1, Nluc-IL23R fusion protein (human, UniProt Q5VWK5 22-629).
T1 construct: range 22-629; Stably expressed in HEK293 cells; also called hIL-23R; human IL-23R fused to a Nanoluc luciferase enzyme; not shown: Nanoluc luciferase (Promega N1371 plasmid) at the N-terminus
T1 sequence (looked up): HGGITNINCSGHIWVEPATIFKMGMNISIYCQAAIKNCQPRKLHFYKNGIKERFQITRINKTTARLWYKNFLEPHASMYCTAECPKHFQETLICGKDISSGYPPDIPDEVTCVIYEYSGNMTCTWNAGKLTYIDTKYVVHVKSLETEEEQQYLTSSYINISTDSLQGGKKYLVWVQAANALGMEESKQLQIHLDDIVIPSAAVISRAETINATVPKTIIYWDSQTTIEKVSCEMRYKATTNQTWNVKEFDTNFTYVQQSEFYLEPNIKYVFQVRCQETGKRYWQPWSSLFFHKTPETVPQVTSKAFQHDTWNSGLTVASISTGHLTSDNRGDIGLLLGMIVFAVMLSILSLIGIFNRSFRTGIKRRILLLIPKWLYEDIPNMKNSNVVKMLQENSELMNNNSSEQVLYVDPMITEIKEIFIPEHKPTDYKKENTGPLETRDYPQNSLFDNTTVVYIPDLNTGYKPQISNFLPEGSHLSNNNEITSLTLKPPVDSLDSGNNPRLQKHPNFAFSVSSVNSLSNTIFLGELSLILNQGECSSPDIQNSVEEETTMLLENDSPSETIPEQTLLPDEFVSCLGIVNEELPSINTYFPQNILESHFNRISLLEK
Nature of the test: BRET displacement of TAMRA-labelled peptide, Nluc-IL23R membranes. Background: In BRET a luciferase serves as donor, and the signal depends on an acceptor being close.

The target of test [2] is T2, human IL-23R endogenously expressed on DB cells (CRL-2289) (human, UniProt Q5VWK5 24-629).
T2 sequence (looked up): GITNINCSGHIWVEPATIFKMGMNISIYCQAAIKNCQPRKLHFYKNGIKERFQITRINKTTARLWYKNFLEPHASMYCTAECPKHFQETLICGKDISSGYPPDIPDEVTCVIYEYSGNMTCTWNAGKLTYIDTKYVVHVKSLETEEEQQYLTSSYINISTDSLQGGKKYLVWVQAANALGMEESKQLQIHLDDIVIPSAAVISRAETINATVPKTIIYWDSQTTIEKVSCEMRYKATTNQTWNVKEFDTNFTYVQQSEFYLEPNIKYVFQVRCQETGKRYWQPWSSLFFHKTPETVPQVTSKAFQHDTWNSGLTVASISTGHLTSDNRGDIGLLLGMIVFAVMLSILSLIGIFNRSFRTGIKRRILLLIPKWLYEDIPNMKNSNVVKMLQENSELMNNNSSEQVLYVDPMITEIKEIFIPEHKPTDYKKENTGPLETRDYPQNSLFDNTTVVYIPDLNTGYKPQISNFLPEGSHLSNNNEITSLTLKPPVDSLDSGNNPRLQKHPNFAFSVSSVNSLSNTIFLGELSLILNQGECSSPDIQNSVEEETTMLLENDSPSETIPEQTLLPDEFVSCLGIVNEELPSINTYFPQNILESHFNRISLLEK
Nature of the test: cell-based or functional assay.

As for Ac-KSCWQC[AEF][2Nal]LER-NH2 (lactam 1-10; disulfide 3-6) [Compound 54], the Ki in test [1] stood at 178 nM. That is a sub-micromolar value.

Turning to H-DCSCWECWWLCR-NH2 (linker 2-11, 4-7 via CH2COCH2) [Compound 3], the Ki in test [1] is 205 nM.

B1: Compound 40 (peptide)
peptide: [3Amb]SCWQCW[2Nal][αMeL]ER-NH2
modifications: lactam N-10; linker 3-6 via CH2COCH2
SMILES: CC(C)C[C@]1(C)NC(=O)[C@H](Cc2ccc3ccccc3c2)NC(=O)[C@H](Cc2c[nH]c3ccccc23)NC(=O)[C@@H]2CSCC(=O)CSC[C@H](NC(=O)[C@H](CO)NC(=O)c3cccc(c3)CNC(=O)CC[C@@H](C(=O)N[C@@H](CCCNC(=N)N)C(N)=O)NC1=O)C(=O)N[C@@H](Cc1c[nH]c3ccccc13)C(=O)N[C@@H](CCC(N)=O)C(=O)N2
On to B1, for which the Ki in test [1] is 18.1 nM.

B2: Compound 25 (peptide)
peptide: Ac-KSC[2Nal]QCW[2Nal]LER-NH2
modifications: lactam 1-10; linker 3-6 via CH2COCH2
SMILES: CC(=O)N[C@H]1CCCCNC(=O)CC[C@@H](C(=O)N[C@@H](CCCNC(=N)N)C(N)=O)NC(=O)[C@H](CC(C)C)NC(=O)[C@H](Cc2ccc3ccccc3c2)NC(=O)[C@H](Cc2c[nH]c3ccccc23)NC(=O)[C@@H]2CSCC(=O)CSC[C@H](NC(=O)[C@H](CO)NC1=O)C(=O)N[C@@H](Cc1ccc3ccccc3c1)C(=O)N[C@@H](CCC(N)=O)C(=O)N2
As for B2, the “IC50 (pSTAT3)” value in test [2] was > 1 µM. In addition, the affinity in test [1] corresponds to a Ki of 185 nM.

B3: Compound 57 (peptide)
peptide: Ac-DETCWQCW[2Nal][αMeL]KR-NH2
modifications: lactam 2-11; linker 4-7 via CH2COCH2
SMILES: CC(=O)N[C@@H](CC(=O)O)C(=O)N[C@H]1CCC(=O)NCCCC[C@@H](C(=O)N[C@@H](CCCNC(=N)N)C(N)=O)NC(=O)[C@](C)(CC(C)C)NC(=O)[C@H](Cc2ccc3ccccc3c2)NC(=O)[C@H](Cc2c[nH]c3ccccc23)NC(=O)[C@@H]2CSCC(=O)CSC[C@H](NC(=O)[C@H]([C@@H](C)O)NC1=O)C(=O)N[C@@H](Cc1c[nH]c3ccccc13)C(=O)N[C@@H](CCC(N)=O)C(=O)N2
Regarding B3, in test [2], the “IC50 (pSTAT3)” value came out at 167 nM. Moreover, in test [1], the Ki is 68 nM.

B4: Compound 30 (peptide)
peptide: KSCWQCHXLER
HELM: PEPTIDE1{[ac].K.S.C.W.Q.C.H.[O=C([C@H](Cc1ccc2ccccc2c1)N[*:1])[*:2]].L.E.R.[am]}|CHEM1{[O=C(C[*:1])C[*:2]]}$PEPTIDE1,PEPTIDE1,2:R3-11:R3|PEPTIDE1,CHEM1,4:R3-1:R1|PEPTIDE1,CHEM1,7:R3-1:R2$$$V2.0
SMILES: CC(=O)N[C@H]1CCCCNC(=O)CC[C@@H](C(=O)N[C@@H](CCCNC(=N)N)C(N)=O)NC(=O)[C@H](CC(C)C)NC(=O)[C@H](Cc2ccc3ccccc3c2)NC(=O)[C@H](Cc2c[nH]cn2)NC(=O)[C@@H]2CSCC(=O)CSC[C@H](NC(=O)[C@H](CO)NC1=O)C(=O)N[C@@H](Cc1c[nH]c3ccccc13)C(=O)N[C@@H](CCC(N)=O)C(=O)N2
For B4, the “IC50 (pSTAT3)” value in test [2] worked out at 68.6 nM. In test [1], this molecule showed a Ki of 5.53 nM.

Turning to Ac-ESCWQCWWLK-NH2 (lactam 1-10; linker 3-6 via 1,3‑dibromopropan‑2‑one) [Compound 12], in test [2], the “IC50 (pSTAT3)” value is > 1 µM. The molecule further registered a Ki in test [1] of 373 nM.

B5: Compound 35 (peptide)
peptide: Ac-GCTCWECW[2Nal][αMeL]CR-NH2
modifications: linker 2-11, 4-7 via CH2COCH2
SMILES: CC(=O)NCC(=O)N[C@H]1CSCC(=O)CSC[C@@H](C(=O)N[C@@H](CCCNC(=N)N)C(N)=O)NC(=O)[C@](C)(CC(C)C)NC(=O)[C@H](Cc2ccc3ccccc3c2)NC(=O)[C@H](Cc2c[nH]c3ccccc23)NC(=O)[C@@H]2CSCC(=O)CSC[C@H](NC(=O)[C@H]([C@@H](C)O)NC1=O)C(=O)N[C@@H](Cc1c[nH]c3ccccc13)C(=O)N[C@@H](CCC(=O)O)C(=O)N2
The molecule B5 gave a Ki in test [1] of 41.2 nM.

B6: Compound 34 (peptide)
peptide: GKTCWECWWXES
HELM: PEPTIDE1{[ac].G.K.T.C.W.E.C.W.W.[CC(C)C[C@](C)(N[*:1])C(=O)[*:2]].E.S.[am]}|CHEM1{[O=C(C[*:1])C[*:2]]}$PEPTIDE1,PEPTIDE1,3:R3-12:R3|PEPTIDE1,CHEM1,5:R3-1:R1|PEPTIDE1,CHEM1,8:R3-1:R2$$$V2.0
SMILES: CC(=O)NCC(=O)N[C@H]1CCCCNC(=O)CC[C@@H](C(=O)N[C@@H](CO)C(N)=O)NC(=O)[C@](C)(CC(C)C)NC(=O)[C@H](Cc2c[nH]c3ccccc23)NC(=O)[C@H](Cc2c[nH]c3ccccc23)NC(=O)[C@@H]2CSCC(=O)CSC[C@H](NC(=O)[C@H]([C@@H](C)O)NC1=O)C(=O)N[C@@H](Cc1c[nH]c3ccccc13)C(=O)N[C@@H](CCC(=O)O)C(=O)N2
Regarding B6, in test [1], the Ki amounted to 65 nM.

For the molecule Ac-DKS[Lys(N3)]WQ[Pra]W[2Nal]LER-NH2 (lactam 2-11; triazole 4-7) [Compound 23], the Ki in test [1] is 117 nM.

B7: Compound 28 (peptide)
peptide: Ac-DKSCWQC[2Nal][2Nal]LER-NH2
modifications: lactam 2-11; linker 4-7 via CH2COCH2
SMILES: CC(=O)N[C@@H](CC(=O)O)C(=O)N[C@H]1CCCCNC(=O)CC[C@@H](C(=O)N[C@@H](CCCNC(=N)N)C(N)=O)NC(=O)[C@H](CC(C)C)NC(=O)[C@H](Cc2ccc3ccccc3c2)NC(=O)[C@H](Cc2ccc3ccccc3c2)NC(=O)[C@@H]2CSCC(=O)CSC[C@H](NC(=O)[C@H](CO)NC1=O)C(=O)N[C@@H](Cc1c[nH]c3ccccc13)C(=O)N[C@@H](CCC(N)=O)C(=O)N2
B7: in test [2], the “IC50 (pSTAT3)” value came out at 27.4 nM. In test [1], this molecule had an inhibition constant Ki of 4.52 nM.

For the molecule Ac-[Abu]QTWQC[AEF]W[αMeK]ENG-NH2 (thioether 1-6) [Compound C], the “IC50 (pSTAT3)” value in test [2] amounted to 13.8 nM. Also, the Ki in test [1] stood at 2.11 nM.

As for Ac-DESCWQCWWLK-NH2 (lactam 2-11; linker 4-7 via 1,3‑dibromopropan‑2‑one) [Compound 11], the “IC50 (pSTAT3)” value in test [2] was > 1 µM. The inhibition constant Ki in test [1] is 706 nM.

B8: Compound 1 (peptide)
peptide: DCSCWQCWWXCR
modifications: H-DC(1a)SC(2a)WQC(2a)WW[2-Me-Leu]C(1a)R-[NH2]; (1a)=[2,11] and (2a)=[4,7] 1,3-dithio-propan-2-one bridges
For B8, in test [2], the “IC50 (pSTAT3)” value turned out to be 783 nM. This molecule displayed a Ki in test [1] of 79.8 nM.

B9: Compound 27 (peptide)
peptide: Ac-KSC[Trp(1-Me)]QCW[2Nal]LER-NH2
modifications: lactam 1-10; linker 3-6 via CH2COCH2
SMILES: CC(=O)N[C@H]1CCCCNC(=O)CC[C@@H](C(=O)N[C@@H](CCCNC(=N)N)C(N)=O)NC(=O)[C@H](CC(C)C)NC(=O)[C@H](Cc2ccc3ccccc3c2)NC(=O)[C@H](Cc2c[nH]c3ccccc23)NC(=O)[C@@H]2CSCC(=O)CSC[C@H](NC(=O)[C@H](CO)NC1=O)C(=O)N[C@@H](Cc1cn(C)c3ccccc13)C(=O)N[C@@H](CCC(N)=O)C(=O)N2
Consider B9, for which the “IC50 (pSTAT3)” value in test [2] was 15.5 nM. Further, affinity in test [1] was put at a Ki of 1.77 nM.

B10: Compound 33 (peptide)
peptide: Ac-CTCWECWW[αMeL]CS-NH2
modifications: linker 1-10, 3-6 via CH2COCH2
SMILES: CC(=O)N[C@H]1CSCC(=O)CSC[C@@H](C(=O)N[C@@H](CO)C(N)=O)NC(=O)[C@](C)(CC(C)C)NC(=O)[C@H](Cc2c[nH]c3ccccc23)NC(=O)[C@H](Cc2c[nH]c3ccccc23)NC(=O)[C@@H]2CSCC(=O)CSC[C@H](NC(=O)[C@H]([C@@H](C)O)NC1=O)C(=O)N[C@@H](Cc1c[nH]c3ccccc13)C(=O)N[C@@H](CCC(=O)O)C(=O)N2
With B10, affinity in test [1] was put at a Ki of 189 nM. This lies in the sub-micromolar range.

In general, Ki refers to a dissociation constant, usually derived from enzyme kinetics or from competition with a known ligand. A lower Ki goes with higher affinity.
